B1: 6His-PA2788^LBD, the N-terminal 6His-tagged ligand-binding domain of PA2788 (residues 44-179) (domain or fragment)
chain: YLSMSISPETINVAGAQRMLSQKMAREALQLRLGAGDPKALAATIAQYERSAADLDAGNAERNVSRMGAPEIAAQRQKVAQIWGRYRAMLDQVAQPASQVDLRGFSQYSTELLGELNNLVSLMSARADSVQHTQMW

How the values were obtained:
[1] = target: 6His-GtrS^LBD, the N-terminal 6His-tagged ligand-binding domain of GtrS (residues 29-199) (P. aeruginosa PAO1) (UniProt Q9HZ47); test: SPR; OpenSPR localized SPR; 6His-GtrS^LBD fixed on COOH chip by capture-coupling; 6His-GltB injected at 1000, 500, 250, 125 nM; 50 mM Tris, 50 mM NaCl, pH 7.0, 25 °C; one to one model
[2] = target: 6His-GltB, the N-terminal 6His-tagged GltB (P. aeruginosa PAO1); test: SPR; OpenSPR localized SPR; 6His-GltB fixed on COOH chip by capture-coupling; 6His-PctA^LBD (1500-500 nM) or 6His-PA2788^LBD (500-100 nM) injected; 50 mM Tris, 50 mM NaCl, pH 7.0, 25 °C; one to one model
[3] = target: T1, GltB (periplasmic glucose-binding protein) (Pseudomonas aeruginosa, UniProt Q9HZ48); test: ITC ([…] °C, one-site model); supported by concentration-dependent thermal shift
T1 construct: gene PA3190; 6His-GltB, the N-terminal 6His-tagged GltB

Molecule	Kd [2] [nM]	further results
6His-GltB, the N-terminal 6His-tagged GltB (natural protein)		Kd [1]: 100 nM
6His-PctA^LBD, the N-terminal 6His-tagged ligand-binding domain of PctA (residues 30-278) (from UniProt G3XD24 30-278) (domain or fragment)	800	
OC[C@H]1OC(O)[C@H](O)[C@@H](O)[C@@H]1O (stereo partly shown) [glucose]		Kd [3]: 1370 nM
B1	400	

Reference: publication PMC7927077, “Glucose-Binding of Periplasmic Protein GltB Activates GtrS-GltR Two-Component System in Pseudomonas aeruginosa” (Microorganisms, 2021)
